Measurements taken from patent CN114656556A.

Experiments:
[1] = biological target: SARS-CoV2 S蛋白, 拉姆达 (Lambda:C.37), on pseudovirus (SARS-CoV2); assay: cell-based or functional assay
[2] = biological target: SARS-CoV2 S蛋白, 奥密克戎 (Omicron:BA.1), on pseudovirus (SARS-CoV2); assay: cell-based or functional assay

B1: 全人源单克隆抗体YK-CoV2-03 (fully human anti-SARS-CoV2 monoclonal antibody, whole IgG) (antibody, V domains shown)
VH: EVQLQESGGGLVQPGGSLRLSCAASGLTVSRNYMTWVRQAPGKGLEWVSLIYAGGSTYYADSVKGRFTISRDNSKNTLYLQMNSLGAEDTAVYYCARDLVYYGMDVWGQGTTVTVAS
VL: DIQMTQSPFSLSASVGDRVTITCRASQGISSYLAWYQQKPGKAPKLLIYAASTLQSGVPSRFSGSGSGTDFTLTISSLQPEDFATYYCQHLNSDRYTFGQGTKLEI
- pseudovirus neutralisation IC50 (luciferase RLU, 293T-hACE2 cells) [1]: 0.0209 mg/L
- pseudovirus neutralisation IC50 (luciferase RLU, 293T-hACE2 cells) [2]: 0.32 mg/L
